Assay results from PMC5899157, “Directed evolution of broadly crossreactive chemokine-blocking antibodies efficacious in arthritis” (Nature Communications, 2018).

Key:
[1] = biological target: T1, hCXCL1 fused to the N-terminus of mouse serum albumin (human, UniProt P09341); experiment: flow cytometry on cells; scFv displayed on yeast (Aga2p fusion) titrated with soluble CXCL-SA fusions bearing His6, 10 pM to 2 μM, overnight at 4 °C, PBSA washes, anti-His6 detection, binding/display MFI; settings: one partner purified
T1 construct: human CXCL1, active protein form; CXCL-SA fusions eluted as dimers to tetramers on SEC; also called ^NCXCL-SA^C; source: HEK293 (suspension-adapted), transient transfection, purified (Ni Sepharose excel, SEC); not shown: mouse serum albumin, C-terminal, kept; His6, C-terminal, kept

[2] = biological target: T2, mCXCL1 fused to the N-terminus of mouse serum albumin (mouse, UniProt P12850); experiment: as above; settings: one partner purified
T2 construct: murine CXCL1, active protein form; also called ^NCXCL-SA^C; source: HEK293 (suspension-adapted), transient transfection, purified (Ni Sepharose excel, SEC); not shown: mouse serum albumin, C-terminal, kept; His6, C-terminal, kept

[3] = biological target: T3, mCXCL3 displayed on the surface of yeast as N-terminal fusion of Aga2p (mouse, UniProt Q6W5C0); experiment: flow cytometry on cells; CXC chemokine displayed on yeast (CXCL-Aga2p) titrated with soluble SA-antibody fusions bearing His6, 10 pM to 20 μM, overnight at 4 °C, PBSA washes, anti-His6 detection, binding/display MFI; settings: one partner purified
T3 construct: murine CXCL3, active processed form; Construct CXCL-(G3)-c-myc-Aga2p; also called ^NCXCL-Aga2p^C; not shown: c-myc, C-terminal, kept; Aga2p, C-terminal, kept

[4] = biological target: T4, wild-type hCXCL1 displayed on the surface of yeast as N-terminal fusion of Aga2p (human, UniProt P09341); experiment: as above; settings: one partner purified
T4 construct: human CXCL1, active processed form; Construct CXCL-(G3)-c-myc-Aga2p; also called hCXCL1^WT; ^NhCXCL1^WT-Aga2p^C; not shown: c-myc, C-terminal, kept; Aga2p, C-terminal, kept

[5] = biological target: T5, biotinylated hCXCL8 (^NCXCL-G2-AviTag^C) (human, UniProt P10145, biotin on the defined lysine of the AviTag (BirA)); experiment: flow cytometry on cells; competition: biotinylated chemokine at its EC50 with varying antagonist (0.3 nM to 3 μM; 0.003 to 30 μM for SA157*) on HEK293 cells expressing CXCR1 or CXCR2; the antagonist and the chemokine; settings: both partners purified
T5 construct: human CXCL8, active form; Which processed form of CXCL8 (72 or 77 residues) was made is only in Supplementary Data 1; not shown: AviTag, C-terminal, kept; Fc (murine IgG2 CH2 and CH3), N-terminal, cleaved; His6, N-terminal, cleaved

[6] = biological target: T6, mCXCL1 displayed on the surface of yeast as N-terminal fusion of Aga2p (mouse, UniProt P12850); experiment: flow cytometry on cells; CXC chemokine displayed on yeast (CXCL-Aga2p) titrated with soluble SA-antibody fusions bearing His6, 10 pM to 20 μM, overnight at 4 °C, PBSA washes, anti-His6 detection, binding/display MFI; settings: one partner purified
T6 construct: murine CXCL1, active processed form; Construct CXCL-(G3)-c-myc-Aga2p; also called ^NCXCL-Aga2p^C; not shown: c-myc, C-terminal, kept; Aga2p, C-terminal, kept

[7] = biological target: T7, mCXCL2 displayed on the surface of yeast as N-terminal fusion of Aga2p (mouse, UniProt P10889); experiment: as above; settings: one partner purified
T7 construct: murine CXCL2, active processed form; Construct CXCL-(G3)-c-myc-Aga2p; also called ^NCXCL-Aga2p^C; not shown: c-myc, C-terminal, kept; Aga2p, C-terminal, kept

[8] = biological target: T8, mCXCL5 displayed on the surface of yeast as N-terminal fusion of Aga2p (mouse, UniProt P50228); experiment: as above; settings: one partner purified
T8 construct: murine CXCL5, active processed form; Construct CXCL-(G3)-c-myc-Aga2p; also called ^NCXCL-Aga2p^C; not shown: c-myc, C-terminal, kept; Aga2p, C-terminal, kept

CCL22 = biological target: T9, CCL22 (human, UniProt O00626); experiment: flow cytometry on cells; polyreactivity test: scFv displayed on yeast, single concentration (2 μM) of soluble protein, detection with streptavidin or anti-His6; settings: one partner purified
T9 construct: CC chemokine CCL22; Detected with streptavidin or anti-His6

chemotactic factor C5a = biological target: T10, chemotactic factor C5a (Homo sapiens (assumed; species not …, UniProt P01031); experiment: as above; settings: one partner purified
T10 construct: C5a, the chemotactic fragment cut from complement C5; Detected with streptavidin or anti-His6

CCL20 = biological target: T11, CCL20 (Homo sapiens (assumed; species not …, UniProt P78556); experiment: as above; settings: one partner purified
T11 construct: CC chemokine CCL20; Detected with streptavidin or anti-His6

CCL28 = biological target: T12, CCL28 (human, UniProt Q9NRJ3); experiment: as above; settings: one partner purified
T12 construct: CC chemokine CCL28; Detected with streptavidin or anti-His6

B1: CK129 single-chain variable antibody fragment, displayed on yeast (scFv, V domains shown)
VH: EVQLVESGGGLVQPGGSLRLSCAASGFNISSYGSMHWVRQAPGKGLEWVASIYPYSSSTYYADSVKGRFTISADTSKNTAYLQMNSLRAEDTAVYYCARGYGPWYAYSYFALDYWGQGTLVTVSS
VL: DIQMTQSPSPLSASVGDRVTITCRASQYGGYVAWYQQKPGKAPKLLIYGASLLYSGVPSRFSGGRSGTDFTLTISSLQPEDFATYYCQRGHALITFGQGTKVEIE
notes: VL of CK129 (CK4 lineage, synthetic library G); flexible linker between VL and VH; VH of CK129; Construct Aga2p-HA-(G4S)3-VL-linker-VH-c-myc; VL-VH orientation; not shown: Aga2p, N-terminal, kept; HA, N-terminal, kept; c-myc, C-terminal, kept
- Kd [1]: 0.79 nM
- Kd [2]: 0.93 nM

B2: SA129, mouse serum albumin fused to the CK129 single-chain variable antibody fragment (scFv, V domains shown)
VH: EVQLVESGGGLVQPGGSLRLSCAASGFNISSYGSMHWVRQAPGKGLEWVASIYPYSSSTYYADSVKGRFTISADTSKNTAYLQMNSLRAEDTAVYYCARGYGPWYAYSYFALDYWGQGTLVTVSS
VL: DIQMTQSPSPLSASVGDRVTITCRASQYGGYVAWYQQKPGKAPKLLIYGASLLYSGVPSRFSGGRSGTDFTLTISSLQPEDFATYYCQRGHALITFGQGTKVEIE
notes: VL of CK129, as in m1; linker between VL and VH; the scFv was amplified from the pCT-CON vector; VH of CK129, as in m1; Construct SA-(G4S)3-scFv-G4S-His6; also called ^NSA-scFv^C; source: HEK293 (suspension-adapted), transient transfection, purified (Ni Sepharose excel, SEC); not shown: mouse serum albumin, N-terminal, kept; His6, C-terminal, kept
- binding result [3]: no binding (tested: up to 20 μM (methods))
- Kd [4]: ~2.5 nM

B3: SA138, mouse serum albumin fused to the CK138 single-chain variable antibody fragment (scFv, V domains shown)
VH: EVQLVESDGGLVQPGGSLRLSCAASGFNLSYYGMHWVRQAPGKGLEWVAYIASYPGYTSYADSVKGRFTISADTSKNTAYLQMNSLRAEDTAVYYCARSGYSYSPYYSWFSAGMNYWGQGALVTVSS
VL: AIQMTRSPSSLSASVGDRVTITCRASQYHDGSAAWYQQKPGKAPKLLIYGASYLYSGVPSRFSGSRSGTDFTLTISSLQPEDFATYYCQQSSYSLITFGQGTKVEIK
notes: VL of CK138, as in m2; linker between VL and VH; the scFv was amplified from the pCT-CON vector; VH of CK138, as in m2; Construct SA-(G4S)3-scFv-G4S-His6; also called ^NSA-scFv^C; source: HEK293 (suspension-adapted), transient transfection, purified (Ni Sepharose excel, SEC); not shown: mouse serum albumin, N-terminal, kept; His6, C-terminal, kept
- binding result [5]: binds
- binding result [6]: binds
- binding result [3]: binds
- Kd [4]: ~100 nM
- binding result [7]: binds
- binding result [8]: binds

B4: SA157*, separate mouse serum albumin fusions of the VL and VH domains of CK157 mixed in equimolar amounts (other)
VH: EVQLVESGGGLVQPGGSLRLSCAASGSNPYYYGGTHWVRQAPGEELEWVASIGSYPGYTDYADSVKGRFTISADTSKNTAYLQMNSLRAEDTAVYYCARHYYWYDATDYWGQGTLVTVSS
VL: DIQMTQSPSSLSASVGDRVTITCRASQSYGGVAWYQQKPGKAPKLLIYSASYLYSGVPSRFSGSRSGTDFTLTISSLQPEDFATYYCQQPSHLITFGQGTEVEIK
notes: VL of CK157, as in m3; VH of CK157, as in m3; Constructs SA-(G4S)3-VL-G4S-His6 and SA-(G4S)3-VH-G4S-His6; not a single chain with a linker; also called ^NSA-VL^C and ^NSA-VH^C; not shown: mouse serum albumin, N-terminal, kept; His6, C-terminal, kept
- binding result [5]: binds
- Kd [4]: ~1500 nM

B5: CK157 single-chain variable antibody fragment, displayed on yeast (scFv, V domains shown)
VH: EVQLVESGGGLVQPGGSLRLSCAASGSNPYYYGGTHWVRQAPGEELEWVASIGSYPGYTDYADSVKGRFTISADTSKNTAYLQMNSLRAEDTAVYYCARHYYWYDATDYWGQGTLVTVSS
VL: DIQMTQSPSSLSASVGDRVTITCRASQSYGGVAWYQQKPGKAPKLLIYSASYLYSGVPSRFSGSRSGTDFTLTISSLQPEDFATYYCQQPSHLITFGQGTEVEIK
notes: VL of CK157 (CK2 lineage, made by combinatorial site-directed mutagenesis); flexible linker between VL and VH; VH of CK157; Construct Aga2p-HA-(G4S)3-VL-linker-VH-c-myc; VL-VH orientation; not shown: Aga2p, N-terminal, kept; HA, N-terminal, kept; c-myc, C-terminal, kept
- binding result (CCL22): binds
- binding result (chemotactic factor C5a): binds
- binding result (CCL20): binds
- binding result (CCL28): binds
